Measurements taken from patent publication US9664676B2, “RNA sequences that induce fluorescence of small molecule fluorophores” (Cornell University, priority 2013, dated 2017).

Legend:
[1] = taken from Song et al.; cited from earlier work
(CGG)60-Spinach2 foci = assay: Effects of drugs on CGG RNA foci in COS-7 cells expressing (CGG)60-Spinach2; format: cell-based
Description: Transfection of COS-7 Cells and Live Cell Imaging: COS-7 cells (ATCC-CRL-1651) were cultured and passaged in DMEM supplemented with 50 units of penicillin and 50 μg of streptomycin per milliliter. For imaging experiments, cells were grown on cells cultured on 24-well glass-bottom dishes and transfected with 0.6 μg of pCDNA-60CGG-Spinach or pCDNA-60CGG-Spinach2 using FuGeneHD (Roche) per the manufacturer's instructions in DMEM medium lacking penicillin and streptomycin. Cells were imaged in CO2-independent medium (Invitrogen) supplemented with L-glutamine. At 30 min-1 h before imaging, medium was supplemented with 25 mM HEPES, 5 mM MgSO4, 1 μg/ml Hoechst 33342 (when appropriate) and 20 μM DFHBI or vehicle. Live fluorescence images were acquired in a temperature-controlled chamber at 35-37° C. with a CoolSnap HQ2 CCD camera through a 60× oil objective (Plan Apo 1.4 numerical aperture (NA)) mounted on a Nikon TE2000 epifluorescence microscope and analyzed with the NIS-Elements software. Spinach was imaged with a filter cube typically used for fluorescein or EGFP, with a sputter-coated excitation filter 470/40 nm, dichroic mirror 495 nm (long-pass), and emission filter 525/50 (Chroma Technology). DsRed-Max and mCherry were imaged using a filter cube typically used for Texas Red, with a sputter coated excitation filter 560/40 nm and emission filter 630/75 nm (Chroma Technology). Background intensity was subtracted from all pixel intensity measurements. Image analyses were completed with NIS-Elements AR 3.2 (Nikon). Drug treatments were carried out as specified. Tautomycin was used at a final concentration of 5 μM in all cases. 1a was used at a final concentration 20 μM in all cases. DMSO was added to a final concentration of 0.1% for vehicle treatments.

[2] = Thermostability measurements of Spinach RNAs with DFHBI; format: physicochemical; settings: fluorescence of RNA-DFHBI complex in vitro, 20-60 °C; ±s.e.m.
Description: Thermostability Measurements: Spinach or Spinach2 (1 μM) was incubated in 20 mM HEPES pH 7.4, 100 mM KCl, 1 mM MgCl2 and 10 μM DFHBI. Fluorescence values were recorded in 1° C. increments from 20° C. to 60° C., with a 5-min incubation at each temperature to allow for equilibration. Fluorescence measurements were performed using a PerkinElmer LS-55 fluorescence spectrometer using the following instrument parameters: excitation wavelength, 460 nm; emission wavelength, 501 nm; slit widths, 10 nm. Curves were fitted using the Boltzmann sigmoidal equation in GraphPad Prism 5 software. Values presented are mean and s.e.m. from three independent measurements.

[3] = In vitro fluorescence (brightness) of Spinach RNAs, mutants and flanked/fused constructs with DFHBI; format: biochemical; settings: for Percent Brightness (at 42° C.): percent of signal remaining at 42 °C for a given mutant; for Relative Brightness (at 25° C.): relative to Spinach
From the text: Preparation and Analysis of Spinach and Spinach Mutants: RNAs were created by using the appropriate single-stranded DNA templates (Integrated DNA Technologies) and PCR amplification using primers that included a 5′ T7 promoter sequence to generate double-stranded DNA templates. PCR products were then purified with PCR purification columns (Qiagen) and used as templates for in vitro T7 transcription reactions (Epicentre) as described previously (Paige et al., “RNA mimics of green fluorescent protein,” Science 333: 642-646 (2011), which is hereby incorporated by reference in its entirety). RNA was purified using ammonium acetate precipitation, and quantified using both absorbance values and the Riboquant Assay kit (BD Biosciences). Photophysical characterization of Spinach2 was carried out as previously described (Paige et al., “RNA mimics of green fluorescent protein,” Science 333: 642-646 (2011), which is hereby incorporated by reference in its entirety).
Preparation and In Vitro Analysis of Flanked Spinach and Spinach2 Constructs: Spinach and Spinach2 constructs flanked on either side by 50 base pairs were generated by PCR. For Spinach, the following primers were used:
The 50-base-pair sequences were taken from the human β-actin 3′ untranslated region. Both forward primers encode the T7 RNA polymerase promoter for in vitro transcription. 5S-Spinach and 5S-Spinach2 were amplified by PCR from pAV-5S-Spinach and pAV-5S-Spinach2, respectively, using the following primers: […]
PCR products were used as templates for in vitro transcription by Ampliscribe T7 RNA polymerase as previously described (Paige et al., “RNA mimics of green fluorescent protein,” Science 333: 642-646 (2011), which is hereby incorporated by reference in its entirety). Fluorescence measurements were recorded for 0.1 μM RNA in the presence of 10 μM DFHBI in buffer composed of 20 mM HEPES pH 7.4, 100 mM KCl and […] as described above.
Next, systematic mutagenesis was carried out to identify thermostable Spinach mutants with improved folding. Because elevated G+C content can lead to stable misfolded structures (Kiliszek et al., “Crystal Structures of CGG RNA Repeats with Implications for Fragile X-Associated Tremor Attaxia Syndrome,” Nuc. Acids Res. 39:7308-7315 (2011); Sobczak et al., “RNA Structure of Trinucleotide Repeats Associated with Human Neurological Diseases,” Nuc. Acids Res. 31:5469-5482 (2003), each of which is hereby incorporated by reference in its entirety), it was reasoned that decreasing the overall G+C content could promote proper folding. Scanning mutagenesis was carried out, mutating every […] and cytosine to adenosine or uracil, respectively. In regions where G and C residues were predicted to form a base pair, both residues were mutated to A and U, to maintain the complementarity. Each of these 35 mutants was synthesized in vitro, and the fraction folded was measured at 25° C. and 42° C. Fluorescence signals that were equal to or greater than Spinach at 25° C. indicated equal or greater percent folded. A higher percentage signal at 42° C. indicated improved thermostability relative to Spinach.

[4] = Folding assay (fraction of RNA folded, DFHBI); format: physicochemical
Description: Folding Assay: The folding assay involves measurement of fluorescence under two conditions, one in which RNA is in excess relative to DFHBI, and one in which the DFHBI is in excess relative to RNA. As Spinach and DFHBI form a 1:1 stoichiometric complex, the maximum amount of complex that can be formed is determined by the limiting component. In the first condition, the fluorescence was determined by incubation of 0.1 μM DFHBI and 100-fold excess (10 μM) Spinach. This value was used to define the fluorescence of 0.1 μM Spinach-DFHBI complex. It was assumed that even if nearly all Spinach is misfolded or unfolded, there will be enough properly folded Spinach to stoichiometrically bind 0.1 μM DFHBI. This was confirmed by measuring fluorescence after doubling the RNA to 20 μM, which caused no increase in fluorescence. In the second condition, the fluorescence obtained using 10 μM DFHBI and 0.1 μM Spinach was measured. In theory, up to 0.1 μM Spinach-DFHBI can form if all the Spinach is folded. However, if a portion of Spinach is unfolded, the fluorescence will be proportionately less than the fluorescence of 0.1 μM Spinach-DFHBI. Thus, this approach can reveal the fraction of Spinach that is folded under diverse conditions.
Fluorescence was measured for each RNA under the following conditions: (i) 0.1 μM RNA and 10 μM DFHBI, and (ii) 0.1 μM DFHBI and 10 μM RNA. For each condition, the signal from DFHBI without RNA was subtracted from each signal. Fluorescence was measured in 20 mM HEPES pH 7.4, 100 mM KCl and 1 mM MgCl2 at the designated temperature. Fluorescence measurements were performed using a PerkinElmer LS-55 fluorescence spectrometer using the following instrument parameters: excitation wavelength, 460 nm; emission wavelength, 501 nm; slit widths, 10 nm. Signal from the first condition (limiting RNA) was divided by the signal from the second condition (limiting dye) to determine the fraction folded.

CC1=N/C(=C\c2cc(F)c(O)c(F)c2)C(=O)N1CC(F)(F)F [DFHBI-1T]
Abs max [1]: 423 nm
Brightness [1]: 0.12
Em max [1]: 495 nm
Ex max [1]: 426 nm
Ext. coeff. [1]: 35,400 M^−1cm^−1
Quantum yield [1]: 0.00098

C=C1[C@@H](O)[C@@H]2O[C@]3(CC[C@H](/C=C/[C@@H](C)[C@@H]4CC(C)=C[C@@]5(O[C@H](C[C@@](C)(O)C(=O)O)CC[C@H]5O)O4)O3)CC[C@H]2O[C@@H]1[C@@H](O)C[C@H](C)[C@H]1O[C@@]2(CCCCO2)CC[C@H]1C [okadaic acid]
disruption of existing foci ((CGG)60-Spinach2 foci; 1a: imaging every 5 min for 2 h, okadaic acid: over 4 h): No disruption of foci

CO[C@H]([C@H](O)CC(=O)[C@@H](C)[C@@H](O)CC[C@@H](C)[C@@H]1O[C@]2(CC[C@@H](C)[C@H](CC[C@H](C)C(C)=O)O2)CC[C@@H]1C)[C@H](OC(=O)C[C@@H](O)C1=C(C)C(=O)OC1=O)C(C)C [tautomycin]
time to disaggregation of existing foci ((CGG)60-Spinach2 foci; 5 μM): 1 h
effect on formation of (CGG)60-Spinach2 foci ((CGG)60-Spinach2 foci; 20 μM 1a or 5 μM tautomycin): prevented formation of (CGG)60-Spinach2 foci
nuclei containing foci ((CGG)60-Spinach2 foci; 24 h treatment, 20 μM 1a or 5 μM tautomycin, ±s.e.m.): 12±4.2%

B1: Spinach1.2: Spinach mutant with perfect complementarity in stem 1 and stem loop 3, SEQ ID NO: 31 (nucleic acid)
chain: GACGCGACCGAATGAAATGGTGAAGGACGGGTCCAGCCGGCTGCTTCGGCAGCCGGCTTGTTGAGTAGAGTGTGAGCTCCGTAACTGGTCGCGTC
modifications: listed as DNA, chemistry not given here
melting temperature (Tm) [2]: 38±0.3 °C
dimmer than Spinach ([3]; 1 μM RNA, 10 μM DFHBI, 25 °C): 16%
Percent Brightness (at 42° C.) [3]: 41%
Relative Brightness (at 25° C.) ([3]; 25 °C): 0.8
percentage folded ([4]; 25 °C, no tRNA scaffold): 27±2.1%
percentage folded ([4]; 37 °C, no tRNA scaffold): 16±2.3%

B2: Spinach: RNA aptamer binding DFHBI, SEQ ID NO: 1 (nucleic acid)
chain: GACGCAACUGAAUGAAAUGGUGAAGGACGGGUCCAGGUGUGGCUGCUUCGGCAGUGCAGCUUGUUGAGUAGAGUGUGAGCUCCGUAACUAGUCGCGUC
modifications: listed as RNA, chemistry not given here
melting temperature (Tm) [2]: 34±0.6 °C
fluorescence when fused to the CGG repeat-containing RNA [3]: essentially nonfluorescent
brightness of flanked RNA relative to the same aptamer alone ([3]; flanked by 50 nt of RNA on both 5′ and 3′ ends, 0.1 μM RNA): 20%
Percent Brightness (at 42° C.) [3]: 19%
Relative Brightness (at 25° C.) ([3]; 25 °C): 1.0
percentage folded ([4]; 25 °C, in the presence of the tRNA (tRNA^Lys3 scaffold)): 50±3.9%
percentage folded ([4]; 25 °C, no tRNA scaffold): 32±4.2%
percentage folded ([4]; 37 °C, in the presence of the tRNA (tRNA^Lys3 scaffold)): 24±2.4%
percentage folded ([4]; 37 °C, no tRNA scaffold): 13±2.8%

B3: Spinach1.1: Spinach mutant with perfect complementarity in stem 1, SEQ ID NO: 30 (nucleic acid)
chain: GACGCGACCGAATGAAATGGTGAAGGACGGGTCCAGGTGTGGCTGCTTCGGCAGTGCAGCTTGTTGAGTAGAGTGTGAGCTCCGTAACTGGTCGCGTC
modifications: listed as DNA, chemistry not given here
melting temperature (Tm) [2]: 35±0.5 °C
brightness compared to Spinach ([3]; 1 μM RNA, 10 μM DFHBI, 25 °C): as bright as Spinach
